The target of assay [1] is T1, cynomolgus monkey E-selectin, cell-surface expressed (cynomolgus monkey, UniProt P16581 22-610 (human entry)).
T1 construct: also called CHO-cynomolgus monkey E-selectin cells; cynomolgus monkey CHO-E
T1 chain: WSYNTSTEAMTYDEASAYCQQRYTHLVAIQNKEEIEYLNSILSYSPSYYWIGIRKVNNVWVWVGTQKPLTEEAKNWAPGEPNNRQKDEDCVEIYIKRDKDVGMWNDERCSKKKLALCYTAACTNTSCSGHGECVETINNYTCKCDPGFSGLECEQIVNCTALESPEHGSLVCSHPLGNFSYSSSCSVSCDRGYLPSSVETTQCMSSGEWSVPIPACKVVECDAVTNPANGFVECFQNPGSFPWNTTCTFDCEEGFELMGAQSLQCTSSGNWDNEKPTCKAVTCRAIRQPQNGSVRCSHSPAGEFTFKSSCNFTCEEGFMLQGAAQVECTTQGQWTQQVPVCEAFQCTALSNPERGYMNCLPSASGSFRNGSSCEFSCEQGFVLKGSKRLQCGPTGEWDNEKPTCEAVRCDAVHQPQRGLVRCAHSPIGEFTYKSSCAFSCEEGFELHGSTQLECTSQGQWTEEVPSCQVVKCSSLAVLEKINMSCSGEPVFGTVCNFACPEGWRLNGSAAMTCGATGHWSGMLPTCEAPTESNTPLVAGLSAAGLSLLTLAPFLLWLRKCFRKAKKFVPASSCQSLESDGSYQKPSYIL
Put plainly: flow cytometry, CHO cells, 6 experiments. The method, then: Binding studies with CHO cells were performed in duplicate using two rows of a 96-well round bottom plate, whereas, binding studies with primary endothelial cells were performed in a single row of a 96-well V-bottom plate. The plates were centrifuged at 300×g for 2 minutes at 4° C. and the cells were resuspended and blocked by incubation in the CHO buffer for 10 minutes on wet ice. After incubation, the cells were centrifuged at 300×g for 2 minutes at 4° C. to remove the buffer. […] After incubation with the antibody, the cells were washed three times by centrifugation at 300×g for 1 minute at 4° C. and resuspended in cold CHO buffer. The washed cells were resuspended and incubated with 100 μL of 1:1000 dilution of AlexaFluor647-conjugated goat anti-human F(ab′)₂ Fragment (Fcγ fragment specific antibody, [Jackson Innnnunoresearch, 109-606-170] for 45 minutes (CHO cells) or 30 minutes (endothelial cells) on wet ice. The cells were washed three or four times prior to resuspension in CHO buffer for flow cytometric analysis. A Becton Dickinson LSRFortessa instrument using 640 nanometer laser line was used to acquire cell fluorescence data. Geometric mean fluorescence of cells was analyzed by FlowJo software package (FlowJo, LLC) and plotted against antibody concentration. […]
For orientation: A flow cytometer gives signals particle by particle.

The target of assay [2] is T2, human P-selectin expressed on CHO cells (human, UniProt P16109 42-830).
T2 construct: whole, on cells; also called CHO-human P-selectin cells; CHO-P-selectin cells
T2 sequence (looked up): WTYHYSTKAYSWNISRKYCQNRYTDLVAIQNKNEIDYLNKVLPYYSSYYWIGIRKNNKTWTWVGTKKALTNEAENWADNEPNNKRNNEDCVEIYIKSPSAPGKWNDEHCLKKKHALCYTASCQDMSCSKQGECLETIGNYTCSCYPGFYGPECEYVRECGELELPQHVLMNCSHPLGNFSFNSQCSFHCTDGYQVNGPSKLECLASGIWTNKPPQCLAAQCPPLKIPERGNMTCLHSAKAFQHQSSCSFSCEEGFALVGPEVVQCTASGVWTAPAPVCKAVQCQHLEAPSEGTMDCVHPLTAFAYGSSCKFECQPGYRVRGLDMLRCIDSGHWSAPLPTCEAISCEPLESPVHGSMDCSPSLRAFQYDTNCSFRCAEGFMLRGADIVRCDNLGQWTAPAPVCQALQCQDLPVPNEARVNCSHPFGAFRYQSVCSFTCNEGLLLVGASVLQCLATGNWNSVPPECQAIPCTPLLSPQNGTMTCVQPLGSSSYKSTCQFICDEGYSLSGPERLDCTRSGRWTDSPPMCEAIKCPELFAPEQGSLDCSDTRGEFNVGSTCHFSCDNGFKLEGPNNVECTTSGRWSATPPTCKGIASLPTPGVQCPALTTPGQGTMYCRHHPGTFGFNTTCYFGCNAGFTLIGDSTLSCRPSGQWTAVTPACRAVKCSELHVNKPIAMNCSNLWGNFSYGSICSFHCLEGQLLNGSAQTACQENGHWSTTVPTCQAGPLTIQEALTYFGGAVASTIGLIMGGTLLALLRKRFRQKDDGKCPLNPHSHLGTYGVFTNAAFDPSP
Kind of assay: flow cytometry, CHO human P-selectin cells.

The target of assay [3] is T3, rabbit E-selectin (rabbit, UniProt P27113 24-495, limits assumed).
T3 sequence (looked up): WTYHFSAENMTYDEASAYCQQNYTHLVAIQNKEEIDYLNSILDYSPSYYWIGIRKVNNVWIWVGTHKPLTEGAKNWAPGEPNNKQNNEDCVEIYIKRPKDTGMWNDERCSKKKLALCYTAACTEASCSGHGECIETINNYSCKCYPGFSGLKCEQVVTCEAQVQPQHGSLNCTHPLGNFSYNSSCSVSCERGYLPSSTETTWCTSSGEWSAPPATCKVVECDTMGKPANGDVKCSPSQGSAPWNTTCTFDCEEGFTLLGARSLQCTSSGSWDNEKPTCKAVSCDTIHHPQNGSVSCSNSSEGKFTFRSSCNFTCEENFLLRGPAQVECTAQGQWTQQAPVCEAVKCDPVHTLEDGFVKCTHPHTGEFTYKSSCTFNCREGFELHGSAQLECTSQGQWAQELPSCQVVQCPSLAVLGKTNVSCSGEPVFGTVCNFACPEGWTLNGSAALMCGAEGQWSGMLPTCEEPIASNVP
Kind of assay: SPR (BIAcore), single sensorgram per selectin. Background: Surface plasmon resonance follows binding to a sensor surface in real time, without labels.

B1: optimized anti-E-selectin antibody 1444 (antibody, human IgG1, kappa, V domains shown)
VH: EVQLVESGGGLVQPGGSLRLSCAASGYAIRSAYMHWVRQAPGKGLEWVARIDPANGNTIYVDSVTGRFTISADNAKNSAYLQMNSLRAEDTAVYYCAMDLYSTSEYWGQGTLVTVSS
VL: DIQMTQSPSSLSASVGDRVTITCKTSQNIERYLNWYQQKPGKAPKLLIYAASSLQSGVPSRFSGSGSGTDFTLTISSLQPEDFATYFCLQDNAWPLTFGQGTKVEIKR
notes: effector-null human IgG1, kappa
B1: the EC50 in assay [1] lay within 0.75 to 1.37 nM. The binding result in assay [2] and in assay [3] was “no binding” in each case.

A word on the EC50: it is the concentration at which the effect is half-maximal.
